According to patent US20240270821A1, “GIP/GLP1/GCG TRI-RECEPTOR AGONISTS AND USES THEREOF” (priority 2023, published 2024):
Residue numbers refer to the chain shown, from its start.

T1: human GIP receptor (human) (UniProt P48546)
T1 sequence (looked up): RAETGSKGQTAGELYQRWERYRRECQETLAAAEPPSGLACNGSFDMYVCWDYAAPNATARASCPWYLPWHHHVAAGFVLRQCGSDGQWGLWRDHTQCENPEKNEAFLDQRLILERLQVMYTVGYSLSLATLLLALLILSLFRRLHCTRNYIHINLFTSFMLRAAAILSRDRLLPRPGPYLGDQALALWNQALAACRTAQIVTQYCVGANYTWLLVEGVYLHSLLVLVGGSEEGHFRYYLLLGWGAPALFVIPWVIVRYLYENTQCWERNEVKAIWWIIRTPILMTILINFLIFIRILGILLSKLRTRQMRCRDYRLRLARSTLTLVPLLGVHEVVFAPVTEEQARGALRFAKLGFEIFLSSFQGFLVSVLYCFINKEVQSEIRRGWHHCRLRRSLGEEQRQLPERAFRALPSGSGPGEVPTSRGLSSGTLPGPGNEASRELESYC

B1: Example 719 (peptide)
chain: YXQGTXTSDXXIXLDXKAAXEFIEXLIEGGPSSGEPPPSGTE
modifications: synthetic construct; SITE 2: note = 2-Aminoisobutyric Acid; SITE 6: note = alpha-methyl-2-fluoro-L-phenylalanine; SITE 10: note = 3-(4-Pyridyl)-L-alanine; SITE 11: note = alpha-methyl-L-serine; SITE 13: note = alpha-methyl-leucine; SITE 16: note = L-ornithine; SITE 17: note = Lysine is chemically mo
B2: Example 659 (peptide)
chain: YXQGTXTSDXSILLDKKAQXAFIEYLEEGGPSSGAPPPEGTE
modifications: synthetic construct; SITE 2: note = 2-Aminoisobutyric Acid; SITE 6: note = alpha-methyl-2-fluoro-L-phenylalanine; SITE 10: note = 3-(4-Pyridyl)-L-alanine; SITE 17: note = Lysine is chemically modified through conjugation of the epsilon-amino group of the Lysine side chain with (gamma-Glu)2-CO-(CH2)1
B3: Example 61 (peptide)
chain: YXQGTFTSDFSXXLDKKAQXAFIEYLLEXGPSSGAPPPSEG
modifications: synthetic construct; SITE 2: note = 2-Aminoisobutyric Acid; SITE 12: note = L-ornithine; SITE 13: note = alpha-methyl-leucine; SITE 17: note = Lysine is chemically modified through conjugation of the epsilon-amino group of the Lysine side chain with (2-[2-(2-Amino-ethoxy)-ethoxy]-acetyl)-(gamma-Glu)
B4: Example 63 (peptide)
chain: B3 chain with X29G, S39G, E40G, G41E
modifications: synthetic construct; SITE 2: note = 2-Aminoisobutyric Acid; SITE 12: note = L-ornithine; SITE 13: note = alpha-methyl-leucine; SITE 17: note = Lysine is chemically modified through conjugation of the epsilon-amino group of the Lysine side chain with (2-[2-(2-Amino-ethoxy)-ethoxy]-acetyl)-(gamma-Glu)
B5: Example 650 (peptide)
chain: YXQGTXTSDXSIXLDKKAQXXFIEYLAEGGPSSGEPPPEGSEE
modifications: synthetic construct; SITE 2: note = 2-Aminoisobutyric Acid; SITE 6: note = alpha-methyl-2-fluoro-L-phenylalanine; SITE 10: note = 3-(4-Pyridyl)-L-alanine; SITE 13: note = alpha-methyl-leucine; SITE 17: note = Lysine is chemically modified through conjugation of the epsilon-amino group of the Lysine
B6: Example 653 (peptide)
chain: B5 chain with A27Q
modifications: synthetic construct; SITE 2: note = 2-Aminoisobutyric Acid; SITE 6: note = alpha-methyl-2-fluoro-L-phenylalanine; SITE 10: note = 3-(4-Pyridyl)-L-alanine; SITE 13: note = alpha-methyl-leucine; SITE 17: note = Lysine is chemically modified through conjugation of the epsilon-amino group of the Lysine
B7: Example 652 (peptide)
chain: B5 chain with A27T
modifications: synthetic construct; SITE 2: note = 2-Aminoisobutyric Acid; SITE 6: note = alpha-methyl-2-fluoro-L-phenylalanine; SITE 10: note = 3-(4-Pyridyl)-L-alanine; SITE 13: note = alpha-methyl-leucine; SITE 17: note = Lysine is chemically modified through conjugation of the epsilon-amino group of the Lysine
B8: Example 656 (peptide)
chain: B5 chain with S11X, K16X, Y25X, A27Q, S41T
modifications: acyl linker with epsilon-Lys; synthetic construct; SITE 2: note = 2-Aminoisobutyric Acid; SITE 6: note = alpha-methyl-2-fluoro-L-phenylalanine; SITE 10: note = 3-(4-Pyridyl)-L-alanine; SITE 11: note = alpha-methyl-L-serine; SITE 13: note = alpha-methyl-leucine; SITE 16: note = L-ornithine; SITE 17: note = Lysine is chemically mo
B9: Example 651 (peptide)
chain: B5 chain with A27S
modifications: synthetic construct; SITE 2: note = 2-Aminoisobutyric Acid; SITE 6: note = alpha-methyl-2-fluoro-L-phenylalanine; SITE 10: note = 3-(4-Pyridyl)-L-alanine; SITE 13: note = alpha-methyl-leucine; SITE 17: note = Lysine is chemically modified through conjugation of the epsilon-amino group of the Lysine
B10: Example 672 (peptide)
chain: YXQGTXTSDXXIXLDXKAAXEFIEXLLEGGPSSGAPPPSGS
modifications: synthetic construct; SITE 2: note = 2-Aminoisobutyric Acid; SITE 6: note = alpha-methyl-2-fluoro-L-phenylalanine; SITE 10: note = 3-(4-Pyridyl)-L-alanine; SITE 11: note = alpha-methyl-L-serine; SITE 13: note = alpha-methyl-leucine; SITE 16: note = L-ornithine; SITE 17: note = Lysine is chemically mo
B11: Example 707 (peptide)
chain: B10 chain with L27I, A35E
modifications: synthetic construct; SITE 2: note = 2-Aminoisobutyric Acid; SITE 6: note = alpha-methyl-2-fluoro-L-phenylalanine; SITE 10: note = 3-(4-Pyridyl)-L-alanine; SITE 11: note = alpha-methyl-L-serine; SITE 13: note = alpha-methyl-leucine; SITE 16: note = L-ornithine; SITE 17: note = Lysine is chemically mo
B12: Example 695 (peptide)
chain: B10 chain with L27V, A35E
modifications: synthetic construct; SITE 2: note = 2-Aminoisobutyric Acid; SITE 6: note = alpha-methyl-2-fluoro-L-phenylalanine; SITE 10: note = 3-(4-Pyridyl)-L-alanine; SITE 11: note = alpha-methyl-L-serine; SITE 13: note = alpha-methyl-leucine; SITE 16: note = L-ornithine; SITE 17: note = Lysine is chemically mo
B13: Example 693 (peptide)
chain: B10 chain with L27V
modifications: synthetic construct; SITE 2: note = 2-Aminoisobutyric Acid; SITE 6: note = alpha-methyl-2-fluoro-L-phenylalanine; SITE 10: note = 3-(4-Pyridyl)-L-alanine; SITE 11: note = alpha-methyl-L-serine; SITE 13: note = alpha-methyl-leucine; SITE 16: note = L-ornithine; SITE 17: note = Lysine is chemically mo
B14: Example 704 (peptide)
chain: YXQGTXTSDXXIXLDXKAAXEFIEXLIEGGPSSGAPPPSGSEE
modifications: synthetic construct; SITE 2: note = 2-Aminoisobutyric Acid; SITE 6: note = alpha-methyl-2-fluoro-L-phenylalanine; SITE 10: note = 3-(4-Pyridyl)-L-alanine; SITE 11: note = alpha-methyl-L-serine; SITE 13: note = alpha-methyl-leucine; SITE 16: note = L-ornithine; SITE 17: note = Lysine is chemically mo
B15: Example 705 (peptide)
chain: B14 chain with S41E
modifications: synthetic construct; SITE 2: note = 2-Aminoisobutyric Acid; SITE 6: note = alpha-methyl-2-fluoro-L-phenylalanine; SITE 10: note = 3-(4-Pyridyl)-L-alanine; SITE 11: note = alpha-methyl-L-serine; SITE 13: note = alpha-methyl-leucine; SITE 16: note = L-ornithine; SITE 17: note = Lysine is chemically mo
B16: Example 682 (peptide)
chain: YXQGTXTSDXSIXLDXKAQXXFIEXLIEGGPSSGEPPPSGE
modifications: synthetic construct; SITE 2: note = 2-Aminoisobutyric Acid; SITE 6: note = alpha-methyl-2-fluoro-L-phenylalanine; SITE 10: note = 3-(4-Pyridyl)-L-alanine; SITE 13: note = alpha-methyl-leucine; SITE 16: note = L-ornithine; SITE 17: note = Lysine is chemically modified through conjugation of the epsil
B17: Example 698 (peptide)
chain: B16 chain with S11X, S39E
modifications: synthetic construct; SITE 2: note = 2-Aminoisobutyric Acid; SITE 6: note = alpha-methyl-2-fluoro-L-phenylalanine; SITE 10: note = 3-(4-Pyridyl)-L-alanine; SITE 11: note = alpha-methyl-L-serine; SITE 13: note = alpha-methyl-leucine; SITE 16: note = L-ornithine; SITE 17: note = Lysine is chemically mo

Each binder was assayed against hGLP-1R (Homo sapiens, UniProt P43220) (assay: cell-based or functional assay).
Sequence of hGLP-1R (P43220 24-463): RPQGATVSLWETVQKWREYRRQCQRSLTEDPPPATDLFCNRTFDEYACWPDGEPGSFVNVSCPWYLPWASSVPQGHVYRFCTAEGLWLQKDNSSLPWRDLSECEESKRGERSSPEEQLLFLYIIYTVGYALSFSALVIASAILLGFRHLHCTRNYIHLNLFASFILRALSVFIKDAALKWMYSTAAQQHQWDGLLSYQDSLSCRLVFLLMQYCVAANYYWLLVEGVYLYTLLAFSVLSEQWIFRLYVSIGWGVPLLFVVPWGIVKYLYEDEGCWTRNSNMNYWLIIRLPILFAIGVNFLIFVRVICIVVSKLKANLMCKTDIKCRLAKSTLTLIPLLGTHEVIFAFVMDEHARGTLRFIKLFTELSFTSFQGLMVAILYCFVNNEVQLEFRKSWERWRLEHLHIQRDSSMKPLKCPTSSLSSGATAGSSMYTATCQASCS

Binder	Relative cAMP EC50 [nM]	cAMP Rel EC50 (1% HSA) [nM]	cAMP Rel EC50, nM (in the presence of 1% HSA) [nM]
B1	0.22	23.2	–
B2	–	81.5	–
B3	2.05	–	704
B4	4.78	–	348
B5	–	31.4	–
B6	–	25	–
B7	–	26.8	–
B8	–	119	–
B9	–	53.9	–
B10	–	49.4	–
B11	0.248	30.6	–
B12	–	19.5	–
B13	–	18	–
B14	0.287	33.9	–
B15	0.305	33.7	–
B16	–	14	–
B17	0.252	20.6	–

What follows are binders tested against human glucagon receptor (human) (UniProt P47871) (assay: cell-based or functional assay).
Sequence of human glucagon receptor (human) (P47871 26-477): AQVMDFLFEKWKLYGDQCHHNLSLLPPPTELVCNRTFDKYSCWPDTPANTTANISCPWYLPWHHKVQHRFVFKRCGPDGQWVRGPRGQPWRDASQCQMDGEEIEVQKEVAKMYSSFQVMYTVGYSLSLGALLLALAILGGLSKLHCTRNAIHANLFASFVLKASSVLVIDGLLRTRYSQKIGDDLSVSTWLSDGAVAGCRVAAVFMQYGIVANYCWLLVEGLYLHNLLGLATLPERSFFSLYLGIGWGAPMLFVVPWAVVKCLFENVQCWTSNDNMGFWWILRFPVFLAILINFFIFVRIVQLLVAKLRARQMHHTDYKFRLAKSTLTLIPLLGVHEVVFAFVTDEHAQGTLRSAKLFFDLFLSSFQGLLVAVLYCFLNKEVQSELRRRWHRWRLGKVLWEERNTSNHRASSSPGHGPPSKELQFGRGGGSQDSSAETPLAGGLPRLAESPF

Binder	Relative cAMP EC50 [nM]	cAMP Rel EC50 (1% HSA) [nM]	cAMP Rel EC50, nM (in the presence of 1% HSA) [nM]
B1	1.44	181	–
B2	–	735	–
B3	3.57	–	1310
B4	4.1	–	709
B5	–	574	–
B6	–	542	–
B7	–	764	–
B8	–	662	–
B9	–	639	–
B10	–	162	–
B11	1.06	199	–
B12	–	164	–
B13	–	304	–
B14	1.85	239	–
B15	1.7	234	–
B16	–	127	–
B17	1.53	124	–

These binders were tested against T1, human GIP receptor (human) (assay: cell-based or functional assay).

Binder	Relative cAMP EC50 [nM]	cAMP Rel EC50 (1% HSA) [nM]	cAMP Rel EC50, nM (in the presence of 1% HSA) [nM]
B1	0.00998	0.882	–
B2	–	5.75	–
B3	0.122	–	55.2
B4	0.255	–	40.4
B5	–	3.1	–
B6	–	1.38	–
B7	–	1.92	–
B8	–	7.13	–
B9	–	6.3	–
B10	–	1.53	–
B11	0.0107	1.05	–
B12	–	0.772	–
B13	–	1.1	–
B14	0.013	1.2	–
B15	0.0128	1.15	–
B16	–	0.415	–
B17	0.0112	0.824	–
